Data from the supplement of paper PMC9170038.

Tests used:
MS2 coat protein [1] = assay: apparent KD of MS2 coat protein, switch ON state; designed switch direction (-1 OFF switch, 1 ON switch): -1; higher = weaker reporter binding; details: FMN input: 0 or 200 uM; Eterna round: R93 (includes R88 designs)
Summary of the method: (§1)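 Normalised binding curves from single clusters were fitted, and the median fit for each design is given as apparent KD. The clusters held designed RNA switches transcribed on-chip from Illumina sequencing clusters. These were titrated with SNAP-549-labelled MS2 coat protein (twofold steps from 0.7 or 1.5 nM to 3 µM, 0.8–1.5 h to 10–20 min per step) in 100 mM Tris-HCl pH 7.5, 80 mM KCl, 4 mM MgCl2, without or with constant ligand.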

MS2 coat protein [2] = assay: apparent KD of MS2 coat protein, switch OFF state (with FMN for OFF switches, without FMN for ON switches); designed switch direction (-1 OFF switch, 1 ON switch): -1; higher = weaker reporter binding; details: FMN input: 0 or 200 uM; Eterna round: R93 (includes R88 designs)
Summary of the method: as §1

| Sequence | apparent KD of MS2 coat protein (MS2 coat protein [1]) | apparent KD of MS2 coat protein (MS2 coat protein [2]) |
| --- | --- | --- |
| AAAAAGUGAGGAUAUGCGCUGUGGAGUAGACACGACCAGUCGUAGAAGGCACAUGAGGAUCACCCAUGUUCAAA [EX4 Malc#21] | 27.4 nM | 25.3 nM |
| CUCUUGUCAGGAUAUUGAAGAAAAGAAGAGAAAGAAAAGAACAAGAAGGGACAUGAGGAUCACCCAUGUAAGAA [EteRNA is fun!] | 61.8 nM | 66.7 nM |
| GGAAAGUGAGGAUAUGCAUAACAAACACAAACACAAACAAAGCAGAAGGCACAUGAGGAUCACCCAUGUAAACA [Exclusion 4 Willow] | 23.5 nM | 22.3 nM |
| AAAAUACAUGAGGAUCACCCAUGUUAGGAUAUCGGAUAAAUAAAAUAAAAUAAAAUAACGAGAAGGGACAAUAA [Exclusion1 Malc#2] | 24.6 nM | 31.6 nM |
| AAAAAACAUGAGGAUCACCCAUGUCAGGAUAUACAAAAGAAAAGAAAAAGAAAAGAAAGUAGAAGGGACAAAAA [mod1] | 23 nM | 24.6 nM |
| AAGAACCUAGGAUAUACAAAAUAAAAGAAAAGAAAGAAAGAACAUGAGGAUCACCCAUGUAGAAGGAGGAAGAA [Renseneb] | 48.3 nM | 18.5 nM |
| AACUAGUCAGGAUAUACGAACAUGUCAAAAAACAUGAAGGGACAUGAGGAUCACCCAUGUAGAAGGGACUAGCA [74%, Web mod - With 3 less G's] | 60.5 nM | 209 nM |
| AGCUAGAGAGGAUAUACAUGGAAAAAAAAAGUCUGAUCCCUACAUGAGGAUCACCCAUGUAGAAGGCUCUGGCA [Ex2 Design 158: Sub-opt 22] | 23.5 nM | 13 nM |
| AUAGGCCUAGGAUAUACAUGAGGAUCACCCAUGUAAACCGAUAGAUCACGGUAAACGUGUAGAAGGAGGAAUAA [JR_Exc003_Sub207] | 24.4 nM | 20.6 nM |
| ACUUAUGAAGGAUAUACUAGCAACAUGCACUCAACACACACACAUGAGGAUCACCCAUGUAGAAGGUCAAACAU [JR_Exc002_Sub1206] | 23.2 nM | 19.7 nM |
| AGCUAGUGAGGAUAUACGAACAUGUCAAAAGACGUGAAGGAACAUGAGGAUCACCCAUGUAGAAGGCACUAGCA [Mat - Exclusion 2 - JL-Eli mod - D54] | 17.2 nM | 14.6 nM |
| AGAAAGUCAGGAUAUGUACAAAAUAAAAUAAAAAUAAAAGUACAGAAGGGACAUGAGGAUCACCCAUGUAAAGA [Mat - Exclusion 4 - Mayanna - D121] | 50.2 nM | 52.4 nM |
| CUCAAGUGAGGAUAUACGAAUAGUAAGUAAGUAUAACAGACGUAGAAGGCACAUGAGGAUCACCCAUGUAAAUA [JR_Exc004_Sub303] | 36.2 nM | 28 nM |
| GUAGUGUGAGGAUAUGGAUAGAAGAAGUGAAAGUAAGAGAACUAGAAGGCACAUGAGGAUCACCCAUGUAUGUG [JR_Exc004_Sub1701] | 41.4 nM | 53.3 nM |
| AAGAAUGAAGGAUAUACAAGGAAGAAAGAAAAGAAAAGAAAACAUGAGGAUCACCCAUGUAGAAGGUCAUAGAA [EteRNA is fun!] | 22 nM | 26.3 nM |
| AGAAAACAUGAGGAUCACCCAUGUCAGGAUAUCCUGCGGUGAUACACACCGCGUUGUCGGAGAAGGGACAGGGA [Tiesesmari] | 65.6 nM | 81.9 nM |
| AAGAAGAUAGGAUAUACAAAAUAAAAGAAAAGAAAGAAAGAACAUGAGGAUCACCCAUGUAGAAGGAUCAAGAA [Sehetepibre Amenemhat I] | 25 nM | 17.7 nM |
| AAAAAACAUGAGGAUCACCCAUGUGAGGAUAUCAGUAGUCAGUCCUCGGAGUGAGUACUGAGAAGGCACAUAAA [Brourd 613 Mod 2- Jieux - Exclusion 1] | 65.9 nM | 113 nM |
| AAAAAGAUAGGAUAUACGAACAUGUCGAAAGACGUGAAGGGACAUGAGGAUCACCCAUGUAGAAGGAUUAAAAA [Mat - Exclusion 2 - JL mod - D89] | 41.9 nM | 16.8 nM |
| AAUAACAGAGGAUAUACAAAAAUAAAAGGAAACAAAAGAAAACAUGAGGAUCACCCAUGUAGAAGGCUGAAUAA [Tetraloop BlockHead] | 19.4 nM | 20.3 nM |
| AAAAGGUUAGGAUAUGCGUGGAAAAAGUGUAUCUAAAAAAAACAUGAGGAUCACCCAUGUAGAAGGGACUUAAA [Banishment 5 - Jieux - Exclusion 2] | 49.7 nM | 37.1 nM |
| AGUUGGCGAGGAUAUACAUGAGGAUCACCCAUGUGAAAGAAAAACUCGAAAGAGAAAAGUAGAAGGCGCUGACA [Mat - Exclusion 3 - Eli mod - D93] | 16.8 nM | 37.6 nM |
